Experimental data as given in PMC10397247.

Tests used:
Assay in all cases: two-hybrid library CCNG1;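 also: natural log of median RNA to DNA barcode read ratio; higher means stronger binding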
[1] = biological target: T1, 4H3638-bN
T1 chain: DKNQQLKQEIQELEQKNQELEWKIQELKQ

[2] = biological target: T2, 4H3129-bN
T2 chain: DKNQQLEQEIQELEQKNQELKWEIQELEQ

[3] = biological target: T3, 4H619-bN
T3 chain: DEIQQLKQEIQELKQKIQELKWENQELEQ

[4] = biological target: T4, 4H1629-bN
T4 chain: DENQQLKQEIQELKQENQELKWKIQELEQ

[5] = biological target: T5, 4H850-bA
T5 chain: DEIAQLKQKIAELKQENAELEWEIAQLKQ

[6] = biological target: T6, 4H3817-bN
T6 chain: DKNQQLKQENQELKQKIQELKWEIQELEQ

[7] = biological target: T7, 4H3974-bN
T7 chain: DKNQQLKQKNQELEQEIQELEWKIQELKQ

[8] = biological target: T8, 4H570-bN
T8 chain: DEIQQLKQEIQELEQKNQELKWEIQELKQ

[9] = biological target: T9, 4H1449-bN
T9 chain: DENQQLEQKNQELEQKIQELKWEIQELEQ

[10] = biological target: T10, 4H3414-bN
T10 chain: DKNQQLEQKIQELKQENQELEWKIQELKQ

[11] = biological target: T11, 4H1710-bN
T11 chain: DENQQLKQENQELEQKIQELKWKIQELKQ

[12] = biological target: T12, 4H1985-bN
T12 chain: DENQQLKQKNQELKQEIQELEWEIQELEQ

[13] = biological target: T13, 4H1804-bN
T13 chain: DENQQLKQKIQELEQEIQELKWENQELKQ

[14] = biological target: T14, 4H584-bN
T14 chain: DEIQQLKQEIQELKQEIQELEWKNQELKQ

[15] = biological target: T15, 4H850-bN
T15 chain: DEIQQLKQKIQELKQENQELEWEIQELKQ

[16] = biological target: T16, 4H3631-bN
T16 chain: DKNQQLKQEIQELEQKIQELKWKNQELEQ

[17] = biological target: T17, 4H906-bN
T17 chain: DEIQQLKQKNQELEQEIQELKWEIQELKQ

[18] = biological target: T18, 4H3172-bN
T18 chain: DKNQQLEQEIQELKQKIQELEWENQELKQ

[19] = biological target: T19, 4H1393-bN
T19 chain: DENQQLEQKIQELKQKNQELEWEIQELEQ

[20] = biological target: T20, 4H607-bN
T20 chain: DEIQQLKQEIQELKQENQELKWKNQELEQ

[21] = biological target: T21, 4H717-bN
T21 chain: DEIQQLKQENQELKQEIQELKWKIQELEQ

[22] = biological target: T22, 4H331-bN
T22 chain: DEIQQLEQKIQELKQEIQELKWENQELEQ

[23] = biological target: T23, 4H2610-bN
T23 chain: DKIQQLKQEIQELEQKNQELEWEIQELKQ

[24] = biological target: T24, 4H2667-bN
T24 chain: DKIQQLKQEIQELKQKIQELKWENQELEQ

[25] = biological target: T25, 4H370-bN
T25 chain: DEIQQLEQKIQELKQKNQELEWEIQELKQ

[26] = biological target: T26, 4H1446-bN
T26 chain: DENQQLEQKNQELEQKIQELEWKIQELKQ

[27] = biological target: T27, 4H568-bN
T27 chain: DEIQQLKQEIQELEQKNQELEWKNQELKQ

[28] = biological target: T28, 4H338-bN
T28 chain: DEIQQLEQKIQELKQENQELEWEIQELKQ

[29] = biological target: T29, 4H3189-bN
T29 chain: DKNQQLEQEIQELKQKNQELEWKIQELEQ

[30] = biological target: T30, 4H3843-bN
T30 chain: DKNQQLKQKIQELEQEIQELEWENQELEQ

[31] = biological target: T31, 4H1845-bN
T31 chain: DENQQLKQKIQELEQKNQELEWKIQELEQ

[32] = biological target: T32, 4H953-bN
T32 chain: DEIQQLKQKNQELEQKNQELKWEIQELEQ

[33] = biological target: T33, 4H4001-bN
T33 chain: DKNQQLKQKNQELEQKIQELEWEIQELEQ

[34] = biological target: T34, 4H918-bN
T34 chain: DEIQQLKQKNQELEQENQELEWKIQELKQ

[35] = biological target: T35, 4H3782-bN
T35 chain: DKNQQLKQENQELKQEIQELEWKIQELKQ

[36] = biological target: T36, 4H454-bN
T36 chain: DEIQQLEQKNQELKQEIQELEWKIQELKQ

[37] = biological target: T37, 4H2618-bN
T37 chain: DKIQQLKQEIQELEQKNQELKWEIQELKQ

[38] = biological target: T38, 4H2442-bN
T38 chain: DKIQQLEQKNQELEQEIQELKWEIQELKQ

[39] = biological target: T39, 4H883-bN
T39 chain: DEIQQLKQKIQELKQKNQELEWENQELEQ

[40] = biological target: T40, 4H967-bN
T40 chain: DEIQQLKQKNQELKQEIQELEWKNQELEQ

[41] = biological target: T41, 4H1828-bN
T41 chain: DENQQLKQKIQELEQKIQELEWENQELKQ

[42] = biological target: T42, 4H2697-bN
T42 chain: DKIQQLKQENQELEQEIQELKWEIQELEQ

[43] = biological target: T43, 4H2576-bN
T43 chain: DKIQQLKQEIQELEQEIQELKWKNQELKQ

[44] = biological target: T44, 4H3354-bN
T44 chain: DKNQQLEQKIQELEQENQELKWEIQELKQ

[45] = biological target: T45, 4H908-bN
T45 chain: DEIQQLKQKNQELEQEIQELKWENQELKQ

[46] = biological target: T46, 4H3855-bN
T46 chain: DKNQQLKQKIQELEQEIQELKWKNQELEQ

[47] = biological target: T47, 4H72-bN
T47 chain: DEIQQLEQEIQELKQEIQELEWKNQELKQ

[48] = biological target: T48, 4H687-bN
T48 chain: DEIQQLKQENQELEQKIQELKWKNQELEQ

[49] = biological target: T49, 4H462-bN
T49 chain: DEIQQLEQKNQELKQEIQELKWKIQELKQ

[50] = biological target: T50, 4H3185-bN
T50 chain: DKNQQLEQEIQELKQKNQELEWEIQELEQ

[51] = biological target: T51, 4H797-bN
T51 chain: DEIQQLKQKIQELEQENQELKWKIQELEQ

[52] = biological target: T52, 4H3606-bN
T52 chain: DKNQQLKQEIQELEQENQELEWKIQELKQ

[53] = biological target: T53, 4H2729-bN
T53 chain: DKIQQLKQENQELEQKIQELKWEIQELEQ

[54] = biological target: T54, 4H3427-bN
T54 chain: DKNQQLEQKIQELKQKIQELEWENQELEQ

[55] = biological target: T55, 4H3112-bN
T55 chain: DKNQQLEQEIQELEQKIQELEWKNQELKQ

[56] = biological target: T56, 4H754-bN
T56 chain: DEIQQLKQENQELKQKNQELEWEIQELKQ

In the case of DENQQLEQKIQELKQKNQELEWEIQELEQ [4H1393-bN], the interaction score [1] is reported as 0.818, the interaction score [2] is reported as -0.903 and the interaction score [3] is reported as -0.97. It also gave an interaction score [4] of -0.818, an interaction score [5] of -0.881 and an interaction score [6] of -1.41. The interaction score [7] was -0.815, the interaction score [8] was -2.48 and the interaction score [9] was -0.996. For the same binder, the interaction score [10] was -1.76, the interaction score [11] was -1.7 and the interaction score [12] was -1.58. It also gave an interaction score [13] of -0.711, an interaction score [14] of -2.15 and an interaction score [15] of -1.57. It also gave an interaction score [16] of -1.03, an interaction score [17] of -0.497 and an interaction score [18] of -1.92. The interaction score [19] was -1.33.

For DENQQLEQKNQELEQKIQELEWKIQELKQ [4H1446-bN], the interaction score [20] was 0.502, the interaction score [21] was -0.982 and the interaction score [22] was 1.22. The interaction score [23] was 0.732, the interaction score [24] was 0.641 and the interaction score [25] was -0.536. For the same binder, the interaction score [26] was 0.223, the interaction score [27] was -0.0813 and the interaction score [28] was -0.426. The interaction score [29] was 0.67, the interaction score [30] was 1.05 and the interaction score [31] was -1.65. For the same binder, the interaction score [32] was -0.0145, the interaction score [33] was 1.11 and the interaction score [34] was 0.759. It also gave an interaction score [35] of -0.169, an interaction score [36] of 0.124 and an interaction score [37] of -0.442. It also gave an interaction score [38] of 0.215, an interaction score [39] of -0.0261 and an interaction score [40] of -1.04. The interaction score [41] was 0.29, the interaction score [42] was -0.277 and the interaction score [43] was 1.07. The interaction score [44] was -0.558, the interaction score [45] was -0.254 and the interaction score [46] was 0.333. For the same binder, the interaction score [47] was 0.548, the interaction score [48] was -0.229 and the interaction score [49] was -1.74. For the same binder, the interaction score [50] was 0.1, the interaction score [51] was -0.329 and the interaction score [52] was -0.294. It also gave an interaction score [53] of 0.529, an interaction score [54] of 0.852 and an interaction score [55] of -0.24. The interaction score [56] was -0.286.
